B1: D6: recombinant protein selected from metagenomic library, polyhystidine-tag at the N-terminus; amidase and esterase (protein)
chain: MEQLKFQKNWNNKCSCDFFTTIRLKGPKYTVGKELEMRIYKGGVFQNHGMIRVASLRPIQLHQINEWISRLDSGLSPEELRSELFYMYKDKVADVNKVDFYLILCERVKSKPIQNALFSTESTPAHD
modifications: N-terminal His tag; Metagenomic origin
notes: recombinant protein selected from metagenomic library, polyhystidine-tag at the N-terminus; amidase and esterase
B2: EST: recombinant protein selected from metagenomic library, polyhystidine-tag at the N-terminus; amidase and esterase (protein)
chain: MSSLFIGQVFAKTPEVQTSDLTGNTTCSNLVGMVIPADEIGLPTSGATITSATLKIVEDGAIKDAEYCEVLGAIHPVDPTAPDINFQVNLPTNWNKKFLQFGGGYFNGTVRTGLGNPPAGDRKLGKNTPLAQGYVTFGSDSGNSTAPLDASFGMNDEALKNFAGDQLKKTKDVALALANVRYNAVPDQVYFAGGSEGGREGLFIVQNFPDEYDGVISVYPVLNWIPKALKDNRDAQALYKNDGEGWISPEENDLINETVFKACDSLDGVKDGIISNTSECAEKEDKILDTLSESLSEKQIEVIKSFNGPMEFDIQLANDFTTMPGYSQLQGADIGRLFGTRPIPGVPPVVSESVGHVIDEQDALMGVYSDQVIRYKITRNPDFNTLTFDPNEYREEILKASNLLDVTDPNISEFRENGGKLILVHGTEDEMVAPQGTSDYYSKLVNEFGQESLDEFAQYYLVPGFSHGGGNFTMSANLLGALDAWVVNGDVPSNLVAEDQNSATFGRTRPLCEYPTYPQYNGSGDVNSAASFTCLKADKDKDISASDIQKLIEKFEVDGEFANHGTARSLQAHLDILIKLESQERETVDQIVKHTQKFIKLLDNHKKNGKITDHAYNTLKELAESYIKQIK
modifications: N-terminal His tag; Metagenomic origin
notes: as for B1
B3: YqfB: recombinant protein selected from metagenomic library, polyhystidine-tag at the N-terminus; amidase and esterase (protein, listed as Escherichia coli)
chain: MQPNDITFFQRFQDDILAGRKTITIRDESESHFKTGDVLRVGRFEDDGYFCTIEVTATSTVTLDTLTEKHAEQENMTLTELKKVIADIYPGQTQFYVIEFKCL
modifications: N-terminal His tag
notes: as for B1

Legend:
[1] = cited from earlier work
[2] = tested on: platelets and neutrophils; settings: cited from earlier work
[3] = target: NLRC4 inflammasome (Homo sapiens, UniProt Q9NPP4); settings: cited from earlier work
NLRC4 inflammasome, sequence (Q9NPP4 whole entry): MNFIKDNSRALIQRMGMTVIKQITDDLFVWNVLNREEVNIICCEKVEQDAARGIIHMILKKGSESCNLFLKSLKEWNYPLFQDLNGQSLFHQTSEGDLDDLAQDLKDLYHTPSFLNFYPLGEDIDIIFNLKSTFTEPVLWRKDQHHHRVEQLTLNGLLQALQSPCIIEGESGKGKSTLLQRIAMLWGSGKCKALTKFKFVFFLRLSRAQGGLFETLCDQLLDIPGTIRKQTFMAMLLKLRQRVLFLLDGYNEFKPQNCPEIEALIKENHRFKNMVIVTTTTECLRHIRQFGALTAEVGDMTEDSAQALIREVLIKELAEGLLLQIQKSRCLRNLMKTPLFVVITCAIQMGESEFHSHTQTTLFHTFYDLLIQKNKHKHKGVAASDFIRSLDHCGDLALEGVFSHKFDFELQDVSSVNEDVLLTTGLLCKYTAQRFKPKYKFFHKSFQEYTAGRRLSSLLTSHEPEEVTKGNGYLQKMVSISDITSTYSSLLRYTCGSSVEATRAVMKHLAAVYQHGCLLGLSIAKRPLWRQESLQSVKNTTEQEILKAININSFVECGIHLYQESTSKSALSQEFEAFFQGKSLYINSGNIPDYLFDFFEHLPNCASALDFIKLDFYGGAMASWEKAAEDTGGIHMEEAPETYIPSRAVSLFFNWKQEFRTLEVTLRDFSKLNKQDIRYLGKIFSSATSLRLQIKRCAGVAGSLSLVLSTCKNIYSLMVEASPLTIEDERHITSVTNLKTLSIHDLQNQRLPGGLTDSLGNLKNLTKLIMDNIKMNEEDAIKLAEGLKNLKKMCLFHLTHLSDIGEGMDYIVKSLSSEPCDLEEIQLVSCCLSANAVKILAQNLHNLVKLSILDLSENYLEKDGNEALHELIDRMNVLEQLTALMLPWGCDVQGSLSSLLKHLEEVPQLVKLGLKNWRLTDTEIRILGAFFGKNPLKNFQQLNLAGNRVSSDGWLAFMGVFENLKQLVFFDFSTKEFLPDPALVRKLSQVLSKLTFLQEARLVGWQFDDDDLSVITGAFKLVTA

[4] = mice; cited from earlier work
[5] = esterase activity of purified recombinant proteins; type: biochemical; settings: purified His-tagged recombinant protein
Text: (§1) Then recombinant proteins (EST, D6 and YqfB) having polyhystidine-tag at the N-terminus were purified by affinity chromatography, enzymatic activities of each protein were estimated.

[6] = hydrolysis of the amide bond of modified dCTP by purified recombinant proteins (amidase activity); type: biochemical; settings: purified His-tagged recombinant protein, 37° C., various buffer solutions
Description: as §1
All three selected proteins are able to hydrolyse the amide bond of N^4-modified cytidine nucleotide. The hydrolysis reaction proceeds in various buffer solutions at 37° C. Depending on the concentration of purified protein enzymatic reaction lasts from several minutes to several hours. […] Moreover, these proteins are capable of hydrolysing not only the amide bond of modified dCTP but also the amide bond of modified cytidine.

Row | Molecule | production of IL-1μ [1] | activation of platelets and neutrophils [2] | activation of the NLRC4 inflammasome [3] | blood pressure [4] | esterase activity [5] | hydrolysis of the amide bond of modified dCTP (activity of amidase) [6]
1 | CC(=O)Nc1ccn([C@@H]2O[C@H](CO)[C@@H](O)[C@H]2O)c(=O)n1 [N^4-acetyl-cytidine] | induces the production of IL-1μ | activates platelets and neutrophils | activates the NLRC4 inflammasome | elevates blood pressure in mice | – | –
2 | B1 | – | – | – | – | behave as esterases | hydrolyse the amide bond of modified dCTP
3 | B2 | – | – | – | – | behave as esterases | hydrolyse the amide bond of modified dCTP
4 | B3 | – | – | – | – | behave as esterases | hydrolyse the amide bond of modified dCTP
